First the molecules themselves.
B1: anti-NOV1401 Fab IDT1 (parental, first generation) (Fab, V domains shown)
VH: QVQLLESGGGLVQPGGSLRLSCAASGFTFSDYAMSWVRQAPGKGLEWVSVIDYSSSNTYYADSVKGRFTISRDNSKNTLYLQMNSLRAEDTAVYYCAREGYSYRSIRFDYWGQGTLVTVSS
VL: DIQMTQSPSSLSASVGDRVTITCRASQSISSNLNWYQQKPGKAPKLLIYAASNLQSGVPSRFSGSGSGTDFTLTISSLQPEDFATYYCLQFDHTPFTFGQGTKVEIKR
notes: also called parental Fab; parental antibody IDT1
B2: anti-NOV1401 Fab IDT1A, E. coli format (Fab, V domains shown)
VH: B1 VH with Q1E
VL: B1 VL with F91Y, D92Y, T94L, F96Y
B3: anti-NOV1401 Fab IDT1B, E. coli format (Fab, V domains shown)
VH: B1 VH with Q1E, V50T, D52S, S54L, S55G, S56Q, N57E, T58K, Y59H
VL: B1 VL
B4: anti-NOV1401 Fab IDT1E (HC2 + LC2) (Fab, V domains shown)
VH: B1 VH with V50T, D52S, S54L, S55G, S56Q, N57E, T58K, Y59H
VL: B1 VL with F91Y, D92Y, T94L, F96Y
notes: Cross-clone: heavy chain of IDT1B with light chain of IDT1A; expressed in 293 HEK cells
B5: anti-NOV1401 Fab IDT1D (HC1 + LC2) (Fab, V domains shown)
VH: B1 VH with V50T, D52A, S54V, S55G, S56A, N57P, Y59H
VL: B1 VL with F91Y, D92Y, T94L, F96Y
notes: Cross-clone: heavy chain of IDT1C with light chain of IDT1A; expressed in 293 HEK cells; also called 1DT1D
B6: anti-NOV1401 Fab IDT1C, mammalian format (HC1 + LC1) (Fab, V domains shown)
VH: B1 VH with V50T, D52A, S54V, S55G, S56A, N57P, Y59H
VL: B1 VL
B7: anti-FXI/FXIa antibody NOV1401 (antibody, human IgG1, lambda, V domains shown)
VH: QVQLLESGGGLVQPGGSLRLSCAASGFTFSTAAMSWVRQAPGKGLEWVSGISGSGSSTYYADSVKGRFTISRDNSKNTLYLQMNSLRAEDTAVYYCARELSYLYSGYYFDYWGQGTLVTVSS
VL: QSVLTQPPSASGTPGQRVTISCSGSSSNIGSNDVSWYQQLPGTAPKLLIYKNYNRPSGVPDRFSGSKSGTSASLAISGLQSEDEADYYCSAWDQRQFDVVFGGGTKLTVLG
notes: Captured through Fc in Octet, free in solution in SET (biotinylated NOV1401 used only on the detection plate), amine-coupled in SPR; also called anti-Factor XI antibody NOV1401; target antibody

Substitutions are numbered along the chain they refer to.

The target in experiment [1] is B7. The experiment is described as follows: solution equilibrium titration (SET), constant Fab with titrated NOV1401, RT, 1:1 fit, average. The procedure: (§1) 14 serial 2-fold dilutions of NOV1401 (from 0.1 pM to 1 nM) were prepared in assay buffer (DPBS (Life Technologies) containing 0.5% BSA and 0.02% Tween-20), and a constant concentration of anti-NOV1401 Fab was added (10 pM, 20 pM or 40 pM). A volume of 60 μl/well of each NOV1401-anti-NOV1401 mix was dispensed in triplicates to a 384-well polypropylene microtiter plate (polypropylene MTP: Greiner, Cat. #781280). Assay buffer served as a negative control and a sample containing only anti-NOV1401 served as a positive control (Bmax). The plate was sealed and incubated overnight (o/n, at least 20 h) at room temperature (RT) on a shaker. A 384-well streptavidin (SA) plate from Life Technologies (Cat. #15505) was coated with 30 μl/well of Biotin-NOV1401 diluted in assay buffer for 2 h at RT on a shaker, then washed three times with wash buffer (PBS containing 0.05% Tween 20). After that 30 μl/well of the equilibrated NOV1401-anti-NOV1401 mix was transferred from the polypropylene MTP (Greiner) to the coated SA plate and incubated for 30 min at RT on a shaker. After an additional wash step, 30 μl/well anti-human Kappa LC-HRP detection antibody (BETHYL, Cat. #A80-115P; 0.05 μg/ml diluted in assay buffer) was added to each well and incubated for 60 min at RT on a shaker. The SA plate was washed, and 30 μl/well LumiGLO read buffer (KPL, Cat. #54-61-01; LumiGLO Peroxidase Chemiluminescent Substrate) was added and incubated for 1 min at RT. RLU signal was measured by the SPECTRAMAXM5 (Molecular Devices, Sunnyvale, Calif. USA).
(§2) All measurements were performed as triplicates and average RLU signals were calculated. Data were baseline-adjusted by subtracting the value for the lowest concentration from all data points and plotted against the corresponding NOV1401 concentration. The KD was determined by non-linear curve fitting using a 1:1 fit model as shown in Equation (according to Haenel et al., 2005, Anal Biochem. 339(1):182-4):
(§3) KD and Bₘₐₓ were set as variables to be fitted by GraphPad Prism 7.03.

Experiment [2] concerns the target B7. The experiment is described as follows: SPR (ProteOn XPR36), NOV1401 amine-coupled, Fab as analyte, 25 C, Langmuir 1:1. The procedure:
SPR binding experiments were performed on a ProteOn XPR36 instrument (Bio-Rad Laboratories, Inc.) in PBS/T buffer (50 mM phosphate, 150 mM NaCl, pH 7.4, 0.05% v/v Tween-20) at 25° C. NOV1401 (‘Ligand’) was immobilized onto an activated ProteOn GLC sensor chip (Bio-Rad Laboratories, Inc.) using standard amine coupling procedures as described by the manufacturer. Briefly, NOV1401 was injected at a concentration of […] in 20 mM sodium acetate, pH 5.0 and at a flow rate of 30 μl/min for 10 min. Unreacted groups were blocked by injecting 1 M ethanolamine.
For kinetic studies anti-NOV1401 Fabs (‘Analytes’) were diluted in PBS/T buffer to generate a dilution series with concentrations ranging from 0.125-4 nM. Fabs were injected onto surfaces with immobilized NOV1401 at a flow rate of 100 μL/min and sensorgrams were recorded for association and dissociation times of 220 s and 1800 s, respectively. Blank surfaces were used for background corrections. There was no need to regenerate surfaces since the ProteOn protein interaction array system allows to run up to six binding experiments on an identical surface in parallel.
Data processing and analysis including kₒₙ, koff, and KD determination were performed with the ProteOn Managerrm software version 3.1.0.6. Sensorgrams were fitted by applying a Langmuir 1:1 binding model (Rmax set at global) and dissociation constants were calculated from kₒₙ and koff.

Experiment [3] deals with B7. Kind of experiment: Octet bio-layer interferometry, NOV1401 captured on anti-human IgG Fc (AHC) sensors, Fab at 25-400 nM in solution. The procedure: Affinity assessments were performed via Bio-Layer Interferometry technology. Anti-Human IgG Fc Capture (AHC) biosensors (Fortebio, Ref. 18-5060) were used to capture NOV1401. […] Buffer (Fortebio, Ref. 18-5032) alone was used for background (0 nM) determination. Fab association and dissociation were each recorded by measuring the change in layer thickness (in nanometers, nm) with time for 800 s each, all under computer control.
(In general: BLI is a label-free optical method that tracks binding on a fibre tip over time.)

Experiment [4] deals with B7. The experiment is described as follows: solution equilibrium titration (SET), 1:1 fit, average KD printed in the panel. The procedure:
as §1, with “A” for “14 serial 2-fold dilutions of NOV1401 (from 0.1 pM to 1 nM) were prepared in assay buffer (DPBS (Life Technologies) containing 0.5% BSA and 0.02% Tween-20), and a constant concentration of anti-NOV1401 Fab was added (10 pM, 20 pM or 40 pM). A”
as §2, §3

Experiment [5] concerns the target B7. Kind of experiment: cell-based or functional assay.
The target of experiment [6] is B4. Kind of experiment: SET: NOV1401 titrated against a constant Fab concentration in solution, free Fab captured on a biotin-NOV1401 streptavidin plate and detected with anti-human kappa-HRP. The protocol:
as §1, §3

Experiment [7] addresses B6. The experiment is described as above. The procedure:
as §1, §3

For experiment [8], the target named is B5. Described as above. The procedure: as §1, §3

As usually defined, the Kd is the free concentration of one partner at which half of the binding sites on the other are occupied at equilibrium, for simple one-to-one binding. As usually defined, the koff is the rate constant with which the complex falls apart. The low end stands for a long-lived complex, the high end for a short-lived complex. The kon is the second-order rate constant of association. A higher kon goes with fast association. With B1, the affinity in experiment [1], expressed as Kd, was 110 pM. In experiment [2], the Kd amounted to 440 pM, the koff amounted to 0.00024 s⁻¹ and the kon was 550000 M⁻¹ s⁻¹.
With B2, the binding result in experiment [3] is “binds”.
Still for that read-out and setting: with B3 the entry was “binds”.
In turn, B4 returned a Kd in experiment [4] of 7 pM. In experiment [5], the “aPTT reversal, NOV1401/anti-NOV1401 ratio (n/n) 1/3” value came out at 72%; the “aPTT reversal, NOV1401/anti-NOV1401 ratio (n/n) 1/9” value was determined as 84%; the “aPTT reversal, NOV1401/anti-NOV1401 ratio (n/n) 1/30” value was 83%. The Kd in experiment [1] was found to be 2.5 pM. The same molecule gave an on-rate constant (kon) in experiment [2] of 690000 M⁻¹ s⁻¹.
Molecule B5 displayed a Kd in experiment [4] of 2.5 pM. Moreover, in experiment [5], the “aPTT reversal, NOV1401/anti-NOV1401 ratio (n/n) 1/3” value was found to be 63%; the “aPTT reversal, NOV1401/anti-NOV1401 ratio (n/n) 1/9” value is 72%; the “aPTT reversal, NOV1401/anti-NOV1401 ratio (n/n) 1/30” value is 78%. The kon in experiment [2] was 440000 M⁻¹ s⁻¹.
In experiment [4], B6 had a Kd of 9.6 pM. For the same molecule, in experiment [5], the “aPTT reversal, NOV1401/anti-NOV1401 ratio (n/n) 1/3” value worked out at 79%; the “aPTT reversal, NOV1401/anti-NOV1401 ratio (n/n) 1/9” value worked out at 80%; the “aPTT reversal, NOV1401/anti-NOV1401 ratio (n/n) 1/30” value worked out at 78%. Besides, in experiment [1], the Kd amounted to 9.6 pM. The kon in experiment [2] amounted to 250000 M⁻¹ s⁻¹.
On to B7, for which the entries for the “IC50 (read off the curve)” value in experiment [6], in experiment [7] and in experiment [8] were ~10 pM, 10 to 20 pM and ~20 pM, respectively.
